According to patent US7732178B2, “Laccase enzymes and their uses” (AB Enzymes Oy, priority 2004, dated 2010):
Entries after “also recorded” stand apart in the source; their conditions may differ.

Assays:
[1] = Specific activity towards syringaldazine; assay type: biochemical; settings: 25 mM MES buffer, pH 5.5
Description: Specific activities of the purified T. arenaria and C. thermophilum laccases were determined towards different laccase substrates.

[2] = Denim bleaching at different pH values; design: key to After laccase treatment L* / After laccase treatment b* / Increase of L*: CIE L*a*b* colour coordinates (illuminant D65), Minolta reflectance; settings: for After laccase treatment L* / After laccase treatment b* / Increase of L*: face side of denim, 30 min, 50° C.
Description: (§1) Lee Cooper jeans (MASI Company Oy, Finland) that were desized and treated with neutral ECOSTONE® cellulase were used as test material. Laccase treatments were performed in LP-2 Launder Ometer as follows. About 10 g of denim swatches (15×14 cm) were loaded into 1.2 liter containers containing 200 ml Mc Ilvaine's citrate phosphate buffer pH 5, 6 or 7 and the containers were temperated. Enzyme with or without the mediator (methyl syringate, DeniLite II Assist, Novozymes) was added as laccase activity units. Enzyme was dosed 200 nkat/g and the mediator 10 mg/g on the weight of fabric. […] The Launder Ometer was run at 50° C. for 30 min and after that the temperature in Launder was raised to 80° C. for 10 min. The swatches were carefully rinsed with warm water, dried half-dry in a tumbler and after that air dried.
(§2) The bleaching effect was evaluated by measuring the colour as reflectance values with the Minolta Chromameter CM 1000 (Minolta Co.) using L*a*b* color space coordinates (illuminant D65). The colour from both sides of the swatches was measured before and after the laccase treatment. Each measurement was the average of several measurements.

[3] = Denim bleaching at different temperatures; design: key to After laccase treatment L* / After laccase treatment b* / Increase of L*: CIE L*a*b* colour coordinates (illuminant D65), reflectance; settings: for After laccase treatment L* / After laccase treatment b* / Increase of L*: face side of denim, 30 min, pH 6, enzyme 200 nkat/g, mediator 10 mg/g
Description: as §1, §2
The test system and denim were as in Example 7, except that the conditions during the laccase and mediator treatment in Launder were 30 min, pH 6 and temperature 30-70° C. (DeniLite II Base also at 80° C.) and the enzyme was inactivated by alkaline treatment instead of raising the temperature in Launder as follows. After removing swatches from the containers they were soaked in warm water containing NaOH (pH 11.5) for 10 min and rinsed carefully with warm water. The swatches were dried half-dry in a tumbler and after that air dried. The bleaching effect was evaluated by measuring the colour as reflectance values as in Example 7.

[4] = Stain removal, grass soiling; design: key to Grass L* / Grass a* / Grass b*: CIE L*a*b* color coordinates from reflectance; settings: for Grass L* / Grass a* / Grass b*: 60 min, pH 6
Description: Laccases CtLcc1, TaLcc2, TaLcc4 and Denilite II Base (Example 7) were tested for their ability to remove stains. The following artificially soiled test cloths were used: grass soiling (Art.164, EMPA Testmaterialen, Germany), tea soiling (Art. 167, EMPA Testmaterialen, Germany). The fabric was cut in 5.8×5.8 cm swatches. Laccase treatments were performed in LP-2 Launder Ometer as follows. About 5 g of soiled fabrics were loaded into 1.2 liter containers containing 150 ml Mc Ilvaine's citrate phosphate buffer pH 6 and the containers were temperated. Enzyme with or without the mediator (methyl syringate, DeniLite II Assist, Novozymes) was added as laccase activity units (Example 7). Enzyme was dosed 200 nkat/g and the mediator 10 mg/g on the weight of fabric, except at 40° C. dosages of 20 nkat/g and 2 mg/g were also used. The Launder Ometer was run at 40, 50 or 60° C. and pH 6 for 60 min. After that the swatches were carefully rinsed under running water and in shake flasks containing warm water and dried in the air.
The stain removal effect was evaluated by measuring the colour as reflectance values using L*a*b* color space coordinates (Example 7). The colour of the swatches was measured before and after the laccase treatment.

[5] = Decolorization of dyes; design: key to Decolorization of Remazol Brilliant blue, Time 30 min / Decolorization of Remazol Brilliant blue, Time 60 min: −: no visually detectable change; +: visually detectable fading of the colour; ++: considerable fading of the colour; +++: complete/almost complete decolorization; settings: for Decolorization of Remazol Brilliant blue, Time 30 min / Decolorization of Remazol Brilliant blue, Time 60 min: Table 24, dye 5 mg/50 ml, enzyme 100 nkat/50 ml, 50° C., pH 6
Description: The recombinant laccases CtLcc1, TaLcc2 and TaLcc4, derived from Trichoderma strains (Example 7) were tested for their ability to decolorize different dyes in the presence of the methyl syringate mediator (Example 7) or without it. The experiments were carried out in 100 ml shake flasks containing 50 ml of dye dissolved in citrate phosphate buffer pH 6. Dye concentration 5 mg/50 ml was used. Enzyme was dosed 100 nkat per 50 ml and the mediator 5 mg per 50 ml. Control samples contained only dye solution. The shake flasks were incubated at 50° C. for 30, 60 and 120 minutes. Samples of 3.5 ml were taken in test tubes for visual evaluation.

[6] = pH 5, enzyme 200 nkat/g without the mediator, or mediator 10 mg/g alone
[7] = pH 5, enzyme 200 nkat/g, mediator 10 mg/g
[8] = pH 6, enzyme 200 nkat/g without the mediator, or mediator 10 mg/g alone
[9] = pH 6, enzyme 200 nkat/g, mediator 10 mg/g
[10] = pH 7, enzyme 200 nkat/g without the mediator, or mediator 10 mg/g alone
[11] = pH 7, enzyme 200 nkat/g, mediator 10 mg/g
[12] = 40° C., enzyme 20 nkat/g + mediator 2 mg/g (Mediator only: 0 nkat/g)
[13] = 40° C., enzyme 200 nkat/g + mediator 10 mg/g (Mediator only: 0 nkat/g), RF5571
[14] = 40° C., enzyme 200 nkat/g + mediator 10 mg/g (Mediator only: 0 nkat/g), RF5573
[15] = 40° C., enzyme 200 nkat/g, mediator 0 mg/g
[16] = 50° C., enzyme 200 nkat/g + mediator 10 mg/g (Mediator only: 0 nkat/g)

B1: TaLcc2: Thielavia arenaria ALKO 4197 laccase, SEQ ID NO: 41, produced in Trichoderma reesei (protein)
chain: MLTETLKSRNMLQSILALLATALGSSAFAIPELPEVSLQPRQACENTATSRQCWGDLSIDTNYYEVLPSTGRPPQEYWLSVVEGPCAPDGYNRTCMTFNGTVPGPTLFADWGDELVIHVTNNMVNNGTAIHWHGIRMLNNTLNDGVPGVTQCAIAPGESMTYRFNVTQYGSTWYHSHFSLQYAEGLFGGMILRGPSTANWDEDLGVLFLQDWSHVEAFTRWHEAKAGFPPSLDGGLINGTNTFDCSTLSPTDPKCTGNGKKFETVFEPGKKYLIRLINVAIDGVFQFSIDGHSLTVIATDLVPIVPYTTDSVQITIGQRYDIIVEANATPGNYWMRADWVTACVTNDHPEHMTGIVRYDASSIDPPTSESNVTKTSSCLGEPNEKTIPHLSLDVTNIGGTNVEELSFDTTSGDYFQWTLNTSSLVLDWGNPTMARIFNGDAIFPTEYNVVAVNKTGTGPEWTVLVIQDQSNLPIAHPIHLHGHDFWVLAAEEGVFNGNISSFNTRNPARRDVATLPGRGYLAIAFQIDNPGTWLTHCHIAWHASQGLSLEFVESQSEIVTDEVSRGVFNDVCASWRAHDPLWEQEDSGI
modifications: Thielavia arenaria ALKO4197; (1)..(589) Deduced amino acid sequence of Thielavia arenaria ALKO4197 TaLacc2
Specific activity on syringaldazin [1]: 120 nkat/mg
After laccase treatment L* [2, 6]: 30.11
After laccase treatment b* [2, 6]: −18.63
Increase of L* [2, 6]: −0.02
After laccase treatment L* [2, 7]: 33.68
After laccase treatment b* [2, 7]: −17.91
Increase of L* [2, 7]: 5.39
After laccase treatment L* [2, 8]: 29.17
After laccase treatment b* [2, 8]: −18.51
Increase of L* [2, 8]: 0.30
After laccase treatment L* [2, 9]: 39.01
After laccase treatment b* [2, 9]: −17.46
Increase of L* [2, 9]: 10.57
After laccase treatment L* [2, 10]: 28.24
After laccase treatment b* [2, 10]: −18.30
Increase of L* [2, 10]: 0.77
After laccase treatment L* [2, 11]: 35.85
After laccase treatment b* [2, 11]: −18.27
Increase of L* [2, 11]: 7.26
decolorization of indigo dye of denim compared to DeniLite II Base ([2]; pH values 6 and 7, with mediator): more efficient
decolorization of denim (increase of lightness) compared to Denilite II Base ([3]; 40-50 ° C. and pH 6): more efficient
After laccase treatment L* ([3]; 30° C.): 33.99
After laccase treatment b* ([3]; 30° C.): −19.33
Increase of L* ([3]; 30° C.): 4.45
After laccase treatment L* ([3]; 40° C.): 37.08
After laccase treatment b* ([3]; 40° C.): −18.53
Increase of L* ([3]; 40° C.): 8.15
After laccase treatment L* ([3]; 50° C., alkaline inactivation): 37.47
After laccase treatment b* ([3]; 50° C., alkaline inactivation): −18.48
Increase of L* ([3]; 50° C., alkaline inactivation): 9.00
After laccase treatment L* ([3]; 60° C.): 36.07
After laccase treatment b* ([3]; 60° C.): −18.26
Increase of L* ([3]; 60° C.): 6.82
After laccase treatment L* ([3]; 70° C.): 32.84
After laccase treatment b* ([3]; 70° C.): −17.94
Increase of L* ([3]; 70° C.): 4.54
Grass L* [4, 12]: 79.25
Grass a* [4, 12]: −2.14
Grass b* [4, 12]: 16.41
Grass L* [4, 13]: 79.24
Grass a* [4, 13]: −0.31
Grass b* [4, 13]: 16.72
Grass L* [4, 14]: 79.19
Grass a* [4, 14]: −0.26
Grass b* [4, 14]: 16.99
Grass L* [4, 15]: 80.01
Grass a* [4, 15]: −4.90
Grass b* [4, 15]: 17.63
Grass L* [4, 16]: 79.50
Grass a* [4, 16]: −1.15
Grass b* [4, 16]: 17.94
removal of grass soiling with the mediator ([4]; CtLcc1 at 60° C., TaLcc2 at 50° C.): effective
Decolorization of Remazol Brilliant blue, Time 30 min ([5]; mediator 0 mg/50 ml): −
Decolorization of Remazol Brilliant blue, Time 60 min ([5]; mediator 0 mg/50 ml): −
Decolorization of Remazol Brilliant blue, Time 30 min ([5]; mediator 5 mg/50 ml): ++
Decolorization of Remazol Brilliant blue, Time 60 min ([5]; mediator 5 mg/50 ml): +++
decolorization of Remazol Brilliant Blue ([5]; in the presence of the mediator): very effectively; also recorded: to great extend or completely
